B1: CAMK2A (parent)
chain: CIQQILEAVLHCHQMGVVHRDLKP

94 variants from the supplement of paper PMC10567573 can be followed below.
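Also: lentivirally expressed fusions sorted by FACS into six bins by GFP to DsRed ratio, PSI derived from sequencing read proportions per bin multiplied by bin number.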

The variants in this series derive from B1. The series is described as follows: protein stability index of a GFP-peptide fusion (GPS, HEK-293T) (PSI 1-6); higher = more stable. The note with it: c terminus: a fixed tail appended.
Consider CIQQILEAVLHCHQMGTVHRDLKP, for which the protein stability index was found to be 3.89.

As to CIQQILEAVLHCHQMGIVHRDLKP, the protein stability index stood at 1.95.

With CIQQILEAVLHCHQMGLVHRDLKP, the protein stability index worked out at 2.42.

Turning to CIQQILEHVLHCHQMGVVHRDLKP, the protein stability index is 2.39.

Take CIQQILECVLHCHQMGVVHRDLKP: the protein stability index came to 2.57.

On to CIQQILEPVLHCHQMGVVHRDLKP, for which the protein stability index worked out at 2.9.

CIQQILEVVLHCHQMGVVHRDLKP: the protein stability index came out at 2.26.

On to CIQQILEGVLHCHQMGVVHRDLKP, for which the protein stability index is 3.6.

Consider CIQQILEQVLHCHQMGVVHRDLKP, for which the protein stability index was found to be 2.42.

As to CIQQILEMVLHCHQMGVVHRDLKP, the protein stability index was found to be 3.63.

As for CIQQILEYVLHCHQMGVVHRDLKP, the protein stability index was 2.54.

CIQQILEKVLHCHQMGVVHRDLKP: the protein stability index was 2.86.

In the case of CIQQILEDVLHCHQMGVVHRDLKP, the protein stability index is 2.04.

For the variant CIQQILEFVLHCHQMGVVHRDLKP, the protein stability index was determined as 3.18.

As to CIQQILERVLHCHQMGVVHRDLKP, the protein stability index was determined as 1.5.

Take CIQQILEWVLHCHQMGVVHRDLKP: the protein stability index is 4.4.

With CIQQILETVLHCHQMGVVHRDLKP, the protein stability index came out at 3.67.

As for CIQQILEAVLHCHQMIVVHRDLKP, the protein stability index is 2.24.

With CIQQILEAVLHCHQMWVVHRDLKP, the protein stability index amounted to 1.79.

Take CIQQILEAVLHCHQMDVVHRDLKP: the protein stability index worked out at 2.41.

On to CIQQILEAVLHCHQMVVVHRDLKP, for which the protein stability index came to 1.3.

Consider CIQQILEAVLHCHQMCVVHRDLKP, for which the protein stability index came to 2.97.

On to CIQQILEAVLHCHQMYVVHRDLKP, for which the protein stability index was found to be 1.91.

CIQQILEAVLHCHQMKVVHRDLKP: the protein stability index worked out at 1.11.

For CIQQILEAVLHCHQMNVVHRDLKP, the protein stability index turned out to be 3.04.

On to CIQQILEAVLHCHQMMVVHRDLKP, for which the protein stability index came out at 3.07.

On to CIQQILEAVLHCHQMHVVHRDLKP, for which the protein stability index amounted to 2.16.

For the variant CIQQILEAVLHCHQMPVVHRDLKP, the protein stability index is 2.69.

Regarding CIQQILEAVLHCHQMEVVHRDLKP, the protein stability index was found to be 3.1.

In the case of CIQQILEAVLHCHQMRVVHRDLKP, the protein stability index amounted to 1.6.

Turning to CIQQILEAVLHCHQMQVVHRDLKP, the protein stability index was 3.06.

As for CIQQILEAVLHCDQMGVVHRDLKP, the protein stability index is 2.57.

Regarding CIQQILEAVLHCKQMGVVHRDLKP, the protein stability index came to 1.73.

For CIQQILEAVLHCRQMGVVHRDLKP, the protein stability index stood at 1.55.

As for CIQQILEAVLHCEQMGVVHRDLKP, the protein stability index is 2.49.

For the variant CIQQILEAVLHCQQMGVVHRDLKP, the protein stability index came out at 1.22.

Consider CIQQILEAVLHCNQMGVVHRDLKP, for which the protein stability index was found to be 2.28.

Take CIQQILEAVLHCFQMGVVHRDLKP: the protein stability index was determined as 1.28.

For CIQQILEAVLHCMQMGVVHRDLKP, the protein stability index worked out at 2.07.

On to CIQQILEAVLHCIQMGVVHRDLKP, for which the protein stability index is 2.85.

Regarding CIQQILEAVLHCCQMGVVHRDLKP, the protein stability index was determined as 2.35.

With CIQQILEAVLHCWQMGVVHRDLKP, the protein stability index came out at 1.27.

On to CIQQILEAVLHCYQMGVVHRDLKP, for which the protein stability index amounted to 3.92.

Take CIQQILEAVLHCGQMGVVHRDLKP: the protein stability index stood at 3.66.

For the variant CIQQILEAVLHCHQMGVVHCDLKP, the protein stability index came to 2.37.

Take CIQQILEAVLHCHQMGVVHEDLKP: the protein stability index came to 3.3.

With CIQQILEAVLHCHQMGVVHFDLKP, the protein stability index amounted to 1.97.

Turning to CIQQILEAVLHCHQMGVVHDDLKP, the protein stability index was found to be 2.72.

As for CIQQILEAPLHCHQMGVVHRDLKP, the protein stability index was determined as 1.26.

With CIQQILEANLHCHQMGVVHRDLKP, the protein stability index stood at 1.96.

For the variant CIQQILEAKLHCHQMGVVHRDLKP, the protein stability index stood at 1.72.

Turning to CIQQILEAQLHCHQMGVVHRDLKP, the protein stability index stood at 1.96.

As for CIQQILEALLHCHQMGVVHRDLKP, the protein stability index came out at 3.23.

For the variant CIQQILEADLHCHQMGVVHRDLKP, the protein stability index worked out at 1.83.

For CIQQILEATLHCHQMGVVHRDLKP, the protein stability index came to 2.86.

Consider CIQQILEARLHCHQMGVVHRDLKP, for which the protein stability index came out at 2.01.

Consider CIQQILEAWLHCHQMGVVHRDLKP, for which the protein stability index was found to be 2.45.

Turning to CIQQILEAYLHCHQMGVVHRDLKP, the protein stability index is 3.08.

Consider CIQQILEAGLHCHQMGVVHRDLKP, for which the protein stability index came to 2.

Regarding CIQQILEAMLHCHQMGVVHRDLKP, the protein stability index came to 2.92.

Regarding CIQQILEACLHCHQMGVVHRDLKP, the protein stability index came to 2.82.

On to CIQQILEAELHCHQMGVVHRDLKP, for which the protein stability index turned out to be 1.87.

On to CIQQILEAALHCHQMGVVHRDLKP, for which the protein stability index came to 1.86.

Take CIQQILEAILHCHQMGVVHRDLKP: the protein stability index worked out at 2.04.

With CIQQILEAHLHCHQMGVVHRDLKP, the protein stability index is 2.35.

CIQQILEAVLHHHQMGVVHRDLKP: the protein stability index worked out at 2.98.

As for CIQQILEAVLHLHQMGVVHRDLKP, the protein stability index came to 3.33.

For CIQQILEAVLHNHQMGVVHRDLKP, the protein stability index was found to be 3.26.

CIQQILEAVLHKHQMGVVHRDLKP: the protein stability index was 1.82.

For CIQQILEAVLHVHQMGVVHRDLKP, the protein stability index worked out at 2.82.

In the case of CIQQILEAVLHWHQMGVVHRDLKP, the protein stability index was 2.65.

Take CIQQILEAVLHYHQMGVVHRDLKP: the protein stability index is 3.8.

CIQQILEAVLHPHQMGVVHRDLKP: the protein stability index worked out at 1.53.

Consider CIQQILEAVLHMHQMGVVHRDLKP, for which the protein stability index was found to be 2.79.

As to CIQQILEAVLHIHQMGVVHRDLKP, the protein stability index turned out to be 2.66.

For the variant CIQQILEAVLHTHQMGVVHRDLKP, the protein stability index turned out to be 2.74.

For CIQQILEAVLHAHQMGVVHRDLKP, the protein stability index came out at 2.34.

For CIQQILEAVLHRHQMGVVHRDLKP, the protein stability index worked out at 4.86.

For CIQQILEAVLHDHQMGVVHRDLKP, the protein stability index was found to be 1.54.

Turning to CIQQILEAVLHEHQMGVVHRDLKP, the protein stability index was 2.58.

Take CIQQILEAVLHGHQMGVVHRDLKP: the protein stability index was 1.18.

CIQQILEAVLCCHQMGVVHRDLKP: the protein stability index amounted to 2.39.

Consider CIQQILEAVLNCHQMGVVHRDLKP, for which the protein stability index amounted to 2.4.

With CIQQILEAVLECHQMGVVHRDLKP, the protein stability index came out at 2.91.

Take CIQQILEAVLQCHQMGVVHRDLKP: the protein stability index is 1.9.

For CIQQILEAVLPCHQMGVVHRDLKP, the protein stability index is 1.69.

For CIQQILEAVLDCHQMGVVHRDLKP, the protein stability index is 3.55.

Take CIQQILEAVLSCHQMGVVHRDLKP: the protein stability index amounted to 2.86.

On to CIQQILEAVLICHQMGVVHRDLKP, for which the protein stability index came to 3.32.

With CIQQILEAVLVCHQMGVVHRDLKP, the protein stability index worked out at 1.53.

CIQQILEAVLFCHQMGVVHRDLKP: the protein stability index worked out at 3.5.

As to CIQQILEAVLKCHQMGVVHRDLKP, the protein stability index turned out to be 1.72.

In the case of CIQQILEAVLMCHQMGVVHRDLKP, the protein stability index worked out at 4.07.

Turning to CIQQILEAVLTCHQMGVVHRDLKP, the protein stability index came to 2.39.
